This data set in a line: soluble on expression in E. coli; label from the status in PepcDB or PDB records.
For “QLPPGTFIPYGLSLESATGVNFLTPTSFWKQTRMHASKRKLLRNMELLIIDEVSMLRADTLDLIDFVLRRVRSNPRSFGGVQVLFIGDLMQLPPVVKPHEWE”, the “soluble on expression in E. coli” value is given as “not soluble”.
Regarding “MPAHSLFSLSVSAALLLSAVPLPAQSAGWKPAEQIKTYAISGNTGGGLYQSIGERGPTAGVQAIAHTTFKLTWRRDYRPQPDGACVLVTARPNLTIIYTWPKAPSNLPPAVAASWKTFISGVETHERVHGEHILDMVKKIEAFSTGLRAENDPKCQKVRVVLQQRLGELSNEQRQRGRDFDRDELSPGGRVHQLILTLANGP”, the “soluble on expression in E. coli” value is given as “soluble”.
To “MKFEFRTLVLISLAVVVVLSGCSQSPSSGGVPEYSGSKVYSAPTLYSQLIGVPTEGVSVKAYTVENANAKDILSWYKEKLSDYEIVNEMSVVQMTTPQGSAEWGAILFKKGDKGVGIWAMSGSGVEGGGAVYFIVEGPIDKLTGESGEAGGAGEQLPASDQASGEEPVKRYPGSVMLSYYKDTSNPLEVSIGIDYGTEDSAEKVAHWYKQELQAEGWVLESESSDDSSIDLAFSRGKEYIDIYIIEPYEGFLTRKLTSTTGRRGCHLTTWSVERSRWRGIPAQLCWNT” belongs “not soluble”.
For “MADTIEVDGKQFAVDEEGYLSNLNDWVPGVADVMAKQDNLELTEEHWDIINFLREYYEEYQIAPAVRVLTKAVGKKLGKEKGNSKYLYSLFPYGPAKQACRFAGLPKPTGCV”, the “soluble on expression in E. coli” value is on record as “soluble”.
As to “MGHHHHHHSHMQEWLYGEKGYYRKALIGQKGDFYTSVSVSKFFGGAVAFYIIKLLEEEKLFLPLKIVEIGSHHGHFLSDIASFLNALSVGVMEQCAFVSCEPLKELQKLQRTIFKQATQLDLMICDLKDLDFKGHENAFVVSNELFDAFACEIVKDNKMLFIAHDHKGVWGAIDEPTKELLKNLDLKQGCAPLFLEAFIKDLLEKLNEASSWVFLSFDYGDETERKDMHLRAFKNHQALDFKDILNNLASLYQQSDLTYDVNFSLVRFLFEKHHAQFSFFKTQANALLDMGLMGLLETFSKSVGYERYLKEAAKIKPLISPGGLGERFKALEFVKKNKM”, the “soluble on expression in E. coli” value is recorded as “not soluble”.
The entry for “MQNVKHSYLACSSSSCCQFFSLFLSLCHAEHQIQTLSPSFAYTLLIFALLVSDKSEIALLSRHTHTYIFLPISSVHPSLELLPFVVFMHMRKLLNDVIRPLKKGDGRSAWNVLIVDTLAMRMLSSCCKMHNIMEEGITIVEDLNKRREPLPTLEAIYLIAPTAESIDKLIQDYCARNLYKCAHVFFTEACSDQLFSTLSKSAAARFIKTLKEINIAFTPYESQVFNLDSPDTFFLYYNAQKQGGLTSNLERIAEQIATVCATLGEYPSLRYRADFERNVELGHLVEQKLDAYKADDPSMGEGADKARSQLIIIDRGYDAITPLLHELTLQAMCYDLLGIENDVYKYETGGSDENLEKEVLLDENDDLWVEMRHKHIAVVSQEVTKNLKKFSESKGNKGTMDSKSIKDLSMLIKRMPQHKKELNKFSTHISLAEECMKQYQQGVDKLCKVEQDLSTGIDAEGERVRDAMKLMVPLLIDPAVRCEDRLRLILLYILSKNGITDENLNKLLQHANISMADKETITNAAYLGLNIVTDTGRKKTWTPTKKERPHEQVYQSSRWVPVIKDIIEDAIDERLDTKHFPFLAGRQVNQGYRAPASARYGQWHKERGQQSNYRSGPRLIIYIIGGVTFSEMRACYEVTAARKPWEVVIGSDRIITPDKFLTNLRDLNKPRDI” is “soluble”; for “MEKFGKPLEENGKEATATVIGLGKLGSEELNYYSDVDLMFIHSTDKGKAGNLSLNDFFQRLFQKVVKLLNAQTPEGVPYFVDLDLRPFGKSGPLSMPLRSAELYYESYGRIWERFALLRARYCAGDEELAQKFMKEVVRPFVFGPADYKLVEEIRLMKKRIEAEAKKKFIKGYNVKTGEGGIREVEFSVQSLVILLGSKTPILRESNTYRAIYKLMQKGVFSSEEAQKLEESYTFLRKLEHRIQLRECLQTQVLKESDKETFAKFLGFESKEEFEEKLKETRAFVKSVFSQILPEREEEELDELQEAVIMEDEESGTQILKQKGFKSTRQIFTLLSEPLYGSMNVHFTEKEKKLYIKLIPKLVNLALSSQNPDQSIKNFFKFFFNPTGRRVILSEHKREEFLEKLFTVFSVSDYLSHLVARNPDLVEDALTLYRDFPKFEDFKREFEKYRETLNLSPENLYRRFKTVWEVRIGLVYLLKEEDRYEKLKKLYISLSTLADFILSNLWKDITLEENTALLYALGKLGSRELNFNSDLDLVFAVKSLEEKEKVHEKAKELVRFLTAHTTEGYLYSVDFRLRPMGSKGELVPTFDFYKKYFEKEARTWERLAWTRARYITGNEEFKEEFERLIENFLFEKPWGEKEKREVYEMRMKLQSVAKRGRGVVDLKLGEGGIVDGEFLVQYLLIKEKIRETSMIRGFEVLMEKYPRLKEAYDSFMFLRLVETHLRLSKERGTSVLSEQDIPKVALSLGMKPEELKESIKEKMKKMREVFNEFLAQ” it is “not soluble”.
“MSQDPFALLKAEVDLLGRLLGEAIRTLSGERFFALVEEVRALAKARRQGDEAAGEALLARVEGLSTEEAEALVRAFTHYFHLVNLAEERHRVRVNRLRAQAETLESPRPEGFLALAKALKERGLSLEEAEAHLNRLELLLTFTAHPTETRRRTLRHHLEALQRELEAGDRERLAARVALLYGTEEVRKARPTVEDEIKGGLYYLPTTLWEAVPRVVAGLEAALERVYGRRPRLKSPVRFRSWIGGDRDGNPFVTPEVTAFAGRYAREVARRRFLEALEDLVRDLSLAEARVPVPREVRERGEGVERFMGEPYRRYFAALYRALEREEATTEGLLAALKAAERGLREVGLGRVAEAFLDPLEARLSAFGLELAPLDLREESGRLLEAAAELLRVGGVHPDFLALPQEERERLLTEELKTARPLLPVGEAPEGEALRVALGALKAWRDKGAHVVSMTHHPEDLLAVFLLAREVGLYRPGRPLPFDVVPLFETLEDLRRAPGVLRRLLENPVFLAHARGRGGVEVMIGYSDSNKDAGFLMANLALYEAQEALSRVGEEVGLPVYFFHGRGTSTARGGGPAGRAIASLPPRSVGRRIRLTEQGEALADRYSHPDLAVRHLEQMLYHFALAALGPGQEPEARWREALAQAAEESTRRYRALLQEEGFFDFFEAFTPIREIGELPIASRPVYRRGRVRDIRDLRAIPWVMAWTQVRVLLPGWYGLSALEELPLDLLREMYRGWPFFASTLEAAAMALAKADMGVARLYLRLVPEPLRFFYRRLAEEHARTVALLEAVFQAPLLHNQRTLERQIRLRNPYVDPINIVQVELLRRYRAPGGKEDEALRRALLLSILGVAAGLRNAG”: the “soluble on expression in E. coli” value is “soluble”.
To “MGHHHHHHSHMYAEERRRQIASLTAVEGRVNVTELAGRFDVTAETIRRDLAVLDREGIVHRVHGGAVATQSFQTTELSLDTRFRSASSAKYSIAKAAMQFLPAEHGGLFLDAGTTVTALADLISEHPSSKQWSIVTNCLPIALNLANAGLDDVQLLGGSVRAITQAVVGDTALRTLALMRADVVFIGTNALTLDHGLSTADSQEAAMKSAMITNAHKVVVLCDSTKMGTDYLVSFGAISDIDVVVTDAGAPASFVEQLRERDVEVVIAE” belongs “soluble”.
The entry for “MTKFDLNDSSVVVIVGSGAGGGTLGNELAQKGVKVVILEAGPRIENQDFINDEWESFSQLAWTDARTTSGTWRVAKDFSGLPAWIVKAVGGSTVHWAGASLRFDEHEFRVKSAYGNIPGANLLDWPVTLAEMEPWYAKAENKMGVTRTNGIPGLPGNNNFKVLEAGAKKLGYKTVHTGNMAINSQPRDGRGSCQQIGFCFQGCKSGAKWSTLYTEIPKGEATGNLEVRPSSMAVKIEHDAGGKVTGVVYADEAGAMQRQKARIVAVAGNSIESPRLLLNSASTMFPDGLANSSGQVGRNYMRHMTGSVYAVFEKSVHMYRGTTMAGIIRDEAANNPKRGFVGGYEMETLSIGLPFMAAFLNPGAWGRPFTSALDGYPRMAGMWLVGEDMPQETNRITLDPVVKDKFGQPVASVHFDDHPNDIAMRAHAYKQGAAVYDAVGATVTYPTPPYPSTHNLGTNRMSEKPRDGVVNKFGQSHDVKNLFVSDGSQFTSGAACNPTLTIVALAIRQADYIAGAMQKKEILEHHHHHH” is “not soluble”; for “MLNRIIEHMNAHHVEDMKGLLKKFGQVHHAENVAFKSVDSQGIVIGYNNNQTLRIEFNHEVKDPKDYKNATIELCQSVEKTHDLKGVEEEVKAFKEGFDSVCLATLHPNGHVVCSYAPLMSDGKQYYIYVSEVAEHFAGLKNNPHNVEVMFLEDESKAKSAILRKRLRYKTNTRFIERGAEFDKAFDSFIEKTGGAGGIKTIRAMQDFHLIALDFKEGRFVKGFGQAYDILGDKIAYVGDKGNPHNFAHKKLEHHHHHH” it is “soluble”.
The entry for “MGSDKIHHHHHHMNRDYVCSEMFCMGTIISQKIYGEDKKEVLFKVENEMRRLEKAMNFYSSSSEISKLNKFGFENEIKLSKDVYHVIKNAKNFSKKTLGAFDISLAPIIKLWGIFCENERVPSVKEIEKNLSLVNYKNLVLNDYKRTVKFLVEDMKVDLGGIAKGYAADRAIDIYKGGGVKSASINLGGNVSVIGEKPDGKSWCIGVQNPLKKRGEIIGAISVKNKSVVTSGSYVRYFEKDNIKYHHIIDPKTGYPAKEELLSVTVIFENSMLCDAVSTAAFIAGADGGIELVKRFRDVEAIFITKDRKVIITKGIAKSFSLVEESGFQYL” is “not soluble”.
In the case of “MSLTTRLADIAAQAGVSEATVSRVLNGKPGVAATTRQSVLAALDVLGYERPVRLRQRSEGLVGLITPELENPIFPALAQVIGQALTRQGYTPVLATQTPGGSTEDELTEMLVDRGVAGIIFVSGLHADTSADMQRYDQLRAQGVPFVLVDGFSPKVQAPFISPDDRAAMTLAVTHLVSLGHTRIGLALGPKRFVPVQRKIEGFVRSVQEQLGLSPDDVERELVQHSLYTLEGGQAAATALMDRDCTAVVCASDMMALGAIRAARQRGLDVPKDISVVGFDDSPLIAFTDPPLTTIRKPVPAMGQAAVRTLLEEIGGTPAPHSEFVFMPELVVRGSTASAPGDRNRPEGHHHHHH”, the “soluble on expression in E. coli” value was “soluble”.
Take “MGKNEILWGIAPIGWRNDDMPEIGAGNTLQHLLSDIVVARFQGTEVGGFFPEPAILNKELKLRNLRIAGKWFSSFILRDGLGEAAKTFTLHCEYLQQVNADVAVVSEQTYSVQSLEKNVFTEKPHFTDDEWERLCEGLNHLGEIAAQHGLKLVYHHHLGTGVQTAEEVDRLMAGTDPAHVHLLYDTGHAYISDGDYMGMLEKHIGRIKHVHFKDARLNVMEQCRLEGQSFRQSFLKGMFTVPGDGCIDFREVYQLLLKHSYSGWIVIEAEQDPDVANPLEYALIARNYIDQQLLDLALEHHHHHH”: the “soluble on expression in E. coli” value is “not soluble”.
To “MGSDKIHHHHHHMLGTLKKLRSRLDEADLVQYNLVVGDQELPLNPLIGQTLSLTHTGNIFCCNCGRKTKKSYSQGHCFPCMQKLASCDMCIMKPETCHFDQGTCREPQWAQSHCFVPHYVYLSNTSGIKVGITRNNQLPTRWIDQGATQGLAIFKVSTRQLSGLIEVELAKLVKDKTNWQAMLKSNAADIDLNAKAQELIPHIEHRLNELAMEKGEYKIERLTETIQQINYPMTAFPKKISSHNFDKVPEVTGVLLGIKGQYLIFDTGVINIRKFSAYEVTVTTN” belongs “not soluble”; to “GDYTTLTFRVSTHIEEAAPTSCPAEHPHTVAQGDYLIVAKSNRMSTGNDELGSILMRAFVNAIGELDRLPSHIILYNTGVLLAVEGTDTAETLAELNKKHGIPIIVCGTCADYYEVKDKLRIGTISNMYRIMQLQVATRHIIYP”, “not soluble”.
To “MGSDKIHHHHHHATSKHVYGENENPYLKTNADAVVSTKAEFPISRLEAKTVKLTDYAEKFHTYLGMTVDETLAALSNGSVVFYPINISKNCWNRTAPTKGTNGWYYNTAGGVCDAASGIASIELDATKKELVLNVLETASVGTAISINVGFAINNGANFDDYVRFAFDVTVTDPGRIVVANTIPAGDYSAFSIEFADYQEVIESCLGLTLSEFITACKEPGGPIALYMVDSESGEWNTTSDYTAGGSGIGYWLTSNLKVTNWSDDGSTGSVLFVETQENGDMVNIGRNPASTSGSVFNVNFVYALKEDNSKFVEFIVKATLE” belongs “not soluble”.

The record behind these values is the DeepSol protein solubility set.
